The source of these data is patent publication US8394929B2, “Nogo receptor-mediated blockade of axonal growth” (Yale University, priority 2000, dated 2013).

Test [1] concerns the target T1, wtNgR (Mus musculus, UniProt Q99PI8).
T1 construct: wtNgR encodes residues 1 to 473 of mNgR; vector secretion signal (pSecTag2) (N); 6xHis (C); expressed in transfected cells; host or cells: COS-7
T1 sequence (Q99PI8 27-473): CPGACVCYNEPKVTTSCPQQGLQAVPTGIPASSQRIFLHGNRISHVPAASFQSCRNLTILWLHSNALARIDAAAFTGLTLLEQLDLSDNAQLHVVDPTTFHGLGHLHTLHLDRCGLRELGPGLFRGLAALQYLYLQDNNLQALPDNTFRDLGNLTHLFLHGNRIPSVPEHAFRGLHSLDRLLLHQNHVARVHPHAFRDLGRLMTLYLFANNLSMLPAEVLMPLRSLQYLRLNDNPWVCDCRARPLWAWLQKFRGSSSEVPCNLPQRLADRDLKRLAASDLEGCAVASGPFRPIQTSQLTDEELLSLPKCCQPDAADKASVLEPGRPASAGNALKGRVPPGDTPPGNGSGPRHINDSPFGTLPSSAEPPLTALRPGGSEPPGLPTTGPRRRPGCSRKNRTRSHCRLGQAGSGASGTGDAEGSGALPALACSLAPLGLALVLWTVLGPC
The experiment in a line: AP-NgR binding to COS-7 cells transfected with wtNgR. As to the method: (§1) A vector encoding AP-hNogo-A (1055-1120) was constructed as described in Fournier et al., supra). The vector encoding AP-NgR was made by ligating the mNgR coding sequence from residues 27-451 in frame with the signal sequence-6× His—placental alkaline phosphatase (AP) sequence of the vector known as pAP-6 (Nakamura et al., Neuron 2: 1093-1100, 1988).
(§2) NgR was tested for the ability to self-associate. For this study, mNgR [hereinafter, wtNgR or WT] and mNgR deletion mutants (see FIG. 18A) were transfected into COS-7 cells. Forty-eight hours after the transfection, the transfected COS-7 cells were washed with HBH. Cells were then incubated for 2 hours at 23° C. with a conditioned medium containing […] diluted in HBH. AP-fusion protein was detected as previously described for AP-Sema3A (Takahashi et al., Nature Neurosci. 1:487-493, 1998). Similar to the AP-Nogo binding profile, AP-NgR bound to wtNgR and NgRΔCT (FIG. 23). Nogo treatment had little, if any, effect on the NgR-NgR interaction (data not shown). […] The same NgR domains are required for GST-hNogo-A (1055-1120) binding and NgR oligomerization

Test [2] concerns the target T2, NgRΔCT (Mus musculus, UniProt Q99PI8).
T2 construct: encodes residues 26 to 305 and 443 to473 of mNgR; vector secretion signal (pSecTag2) (N); 6xHis (C); expressed in transfected cells; host or cells: COS-7
T2 sequence (Q99PI8 with tags, fused parts or gaps): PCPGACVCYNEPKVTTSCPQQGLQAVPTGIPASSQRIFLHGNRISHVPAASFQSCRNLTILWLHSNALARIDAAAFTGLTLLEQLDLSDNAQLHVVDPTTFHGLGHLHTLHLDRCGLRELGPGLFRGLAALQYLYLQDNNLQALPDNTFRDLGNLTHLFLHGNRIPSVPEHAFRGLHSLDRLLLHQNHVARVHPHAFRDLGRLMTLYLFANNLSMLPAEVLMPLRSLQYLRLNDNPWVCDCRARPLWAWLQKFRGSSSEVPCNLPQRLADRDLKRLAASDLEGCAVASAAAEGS
The experiment in a line: AP-NgR binding to COS-7 cells transfected with NgRΔCT. As to the method: as §1, §2

Test [3] deals with NgR deletion mutants. The experiment in a line: AP-NgR binding to COS-7 cells transfected with other NgR deletion mutants. The arrangement: species or system mouse. As to the method:
as §1, §2

B1: AP-NgR: mNgR residues 27-451 fused to signal sequence-6x His-placental alkaline phosphatase (protein)
chain: HHHHHHIIPVEEENPDFWNREAAEALGAAKKLQPAQTAAKNLIIFLGDGMGVSTVTAARILKGQKKDKLGPEIPLAMDRFPYVALSKTYNVDKHVPDSGATATAYLCGVKGNFQTIGLSAAARFNQCNTTRGNEVISVMNRAKKAGKSVGVVTTTRVQHASPAGTYAHTVNRNWYSDADVPASARQEGCQDIATQLISNMDIDVILGGGRKYMFRMGTPDPEYPDDYSQGGTRLDGKNLVQEWLAKRQGARYVWNRTELMQASLDPSVTHLMGLFEPGDMKYEIHRDSTLDPSLMEMTEAALRLLSRNPRGFFLFVEGGRIDHGHHESRAYRALTETIMFDDAIERAGQLTSEEDTLSLVTADHSHVFSFGGYPLRGSSIFGLAPGKARDRKAYTVLLYGNGPGYVLKDGARPDVTESESGSPEYRQQSAVPLDEETHAGEDVAVFARGPQAHLVHGVQEQTFIAHVMAFAACLEPYTACDLAPPAGTTDAAHPGCPGACVCYNEPKVTTSCPQQGLQAVPTGIPASSQRIFLHGNRISHVPAASFQSCRNLTILWLHSNALARIDAAAFTGLTLLEQLDLSDNAQLHVVDPTTFHGLGHLHTLHLDRCGLRELGPGLFRGLAALQYLYLQDNNLQALPDNTFRDLGNLTHLFLHGNRIPSVPEHAFRGLHSLDRLLLHQNHVARVHPHAFRDLGRLMTLYLFANNLSMLPAEVLMPLRSLQYLRLNDNPWVCDCRARPLWAWLQKFRGSSSEVPCNLPQRLADRDLKRLAASDLEGCAVASGPFRPIQTSQLTDEELLSLPKCCQPDAADKASVLEPGRPASAGNALKGRVPPGDTPPGNGSGPRHINDSPFGTLPSSAEPPLTALRPGGSEPPGLPTTGPRRRPGCSRKNRTRSHCRLGQAGSGASGTGDAEGSGALP
For B1, the “binding (in words)” value in test [1] was “bound”; in test [2] it was “bound”; in test [3], “did not bind”.
